{
  "source": "paper PMC7287101",
  "molecular_target": "Spt6 (UniProt Q9W420)",
  "experiment": "anti-Spt6 co-IP, FLAG blot, 150 mM wash",
  "conditions": "reference: wild type dCENP-A-FLAG; sites S20,S75,S77",
  "data": [
    {"substance": "dCENP-A (CID) (from UniProt Q9V6Q2) S20/S75/S77A", "values": [
      {"measurement": "binding against the reference", "value": "stronger"}
    ]}
  ]
}
